For two molecules, CDC inhibition IC50 (anti-CD20-coated Will-2 cells plus serum) results are on record in patent publication US20190389941A1.

The target in the test is complement proteins. In words: cell-based or functional assay.

B1: G1098, P0DOX5 218-449 (Fc fusion)
chain: EPKSCDKTHTCPPCPAPELLGGPSVFLFPPKPKDTLMISRTPEVTCVVVDVSHEDPEVKFNWYVDGVEVHNAKTKPREEQYNSAYRVVSVLTVLHQDWLNGKEYKCKVSNKALPAPIEKTISKAKGQPREPQVYTLPPSREEMTKNQVSLTCLVKGFYPSDIAVEWESNGQPENNYKTTPPVLDSDGSFFLYSKLTVDKSRWQQGNVFSCSVMHGALHNHYTQKYLSLSPGKERKCCVECPPCP
As to B1, the CDC inhibition IC50 (anti-CD20-coated Will-2 cells plus serum) was 10 µg/mL.

B2: G1126, P0DOX5 218-449 (Fc fusion)
chain: EPKSCDKTHTCPPCPAPELLGGPSVFLFPPKPKDTLMISRTPEVTCVVVDVSHEDPEVKFNWYVDGVEVHNAKTKPREEQYNSAYRVVSVLTVLHQDWLNGKEYKCKVSNKALPAPIEKTISKAKGQPRRPQVYTLPPSREEMTKNQVSLTCLVKGFYPSDIAVEWESNGQPENNYKTTPPVLDSDGSFFLYSKLTVDKSRWQQGNVFSCSVMHGALHNHYTQKYLSLSPGKERKCCVECPPCP
Consider B2, for which the CDC inhibition IC50 (anti-CD20-coated Will-2 cells plus serum) came out at 5 µg/mL.
